Measurements as given in patent publication US20220289825A1 (NANJING SHUNXIN PHARMACEUTICALS CO LTD OF CHIATAI TIANQING …, published 2022).
Several values for one entry are separate records, joined by “and”; a condition that tells them apart may be missing. Identical values can stand only once.

Biological target: PD-L1 on CHO-PDL1-CD3L cells (UniProt Q9NZQ7 19-290, limits assumed)
Assay: cell-based or functional assay

Chain of PD-L1 on CHO-PDL1-CD3L cells (Q9NZQ7 19-290 limits assumed): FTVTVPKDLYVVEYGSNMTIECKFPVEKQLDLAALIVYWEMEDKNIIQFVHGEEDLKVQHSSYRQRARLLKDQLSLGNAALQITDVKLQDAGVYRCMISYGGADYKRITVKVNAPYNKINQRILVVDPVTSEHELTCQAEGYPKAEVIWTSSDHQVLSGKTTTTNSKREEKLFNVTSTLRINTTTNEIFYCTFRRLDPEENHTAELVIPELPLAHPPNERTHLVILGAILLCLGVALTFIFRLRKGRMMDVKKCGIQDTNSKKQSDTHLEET

B1: PD-L1 antibody (humanized 5G11-IgG1 antibody of CN107001463) (antibody, V domains shown)
VH: QITLKESGPTLVKPTQTLTLTCTVSGFSLSTYGVHWIRQPPGKALEWLGVIWRGVTTDYNAAFMSRLTITKDNSKNQVVLTMNNMDPVDTATYYCARLGFYAMDYWGQGTLVTVSS
VL: DIQMTQSPSSLSASVGDRVTITCKASQSVSNDVAWYQQKPGKAPKLLIYYAANRYTGVPDRFSGSGYGTDFTFTISSLQPEDIATYFCQQDYTSPYTFGQGTKLEIKR
Q: How did the “Biological activity (EC50 of reference sample/EC50 of test sample x 100%)” value turn out when B1 was run?
A: 100%

Q: What about the “EC50 (nmol/L), reporter gene assay (CHO-PDL1-CD3L + Jurkat-PD-1-NFAT, luciferase RLU)” value of the same binder?
A: 4.6 nmol/L and 4.15 nmol/L
